For this test, the target named is 新型冠状病毒SARS-CoV-2和SARS-CoV以及动物来源的SARS-like冠状病毒S1. Briefly: ELISA, S1 coated at 2 μg/mL, antibody titrated. For orientation: In an ELISA, binding on a coated surface is turned into a signal by an enzyme label.

This note sets out measurements from patent publication CN118459575A.

B1: 广谱抗sarbecovirus和/或新冠突变株的抗体 SCM12-61 (antibody, V domains shown)
VH: QVQLVESGGGVVQPGRSLRLSCATSGFTFRSSAMHWVRQAPGKGLEWVAVIWFDGIKKYYTDSVKGRFTISRDNSKNTLYLQMNSLGAEDTAVYYCARDRAREFYPGPHCGDECYSSDAFDVWGQGTTVIVSS
VL: DIQMTQSPSSLSASVGDRVTITCRASQDINTYLNWYQQKSGRAPKFLIYAASSLQSGIPSRFSGSGSGTDFTLTIDSLQPEDFATYYCQQSHSIPYTFGQGTKLEIKR
With B1, the half-maximal effective concentration (EC50) (in general, the concentration at which the effect is half-maximal) is 0.0239 to 0.0405 µg/mL.
